The labels stand for the following.
B1: sp¦Q16822¦PCKGM_HUMAN (protein, UniProt Q16822 33-640, looked up)
Phosphoenolpyruvate …: LSGDLGQLPTGIRDFVEHSARLCQPEGIHICDGTEAENTATLTLLEQQGLIRKLPKYNNCWLARTDPKDVARVESKTVIVTPSQRDTVPLPPGGARGQLGNWMSPADFQRAVDERFPGCMQGRTMYVLPFSMGPVGSPLSRIGVQLTDSAYVVASMRIMTRLGTPVLQALGDGDFVKCLHSVGQPLTGQGEPVSQWPCNPEKTLIGHVPDQREIISFGSGYGGNSLLGKKCFALRIASRLARDEGWLAEHMLILGITSPAGKKRYVAAAFPSACGKTNLAMMRPALPGWKVECVGDDIAWMRFDSEGRLRAINPENGFFGVAPGTSATTNPNAMATIQSNTIFTNVAETSDGGVYWEGIDQPLPPGVTVTSWLGKPWKPGDKEPCAHPNSRFCAPARQCPIMDPAWEAPEGVPIDAIIFGGRRPKGVPLVYEAFNWRHGVFVGSAMRSESTAAAEHKGKIIMHDPFAMRPFFGYNFGHYLEHWLSMEGRKGAQLPRIFHVNWFRRDEAGHFLWPGFGENARVLDWICRRLEGEDSARETPIGLVPKEGALDLSGLRAIDTTQLFSLPKDFWEQEVRDIRSYLTEQVNQDLPKEVLAELEALERRVHKM
B2: sp¦P00387¦NB5R3_HUMAN (protein, UniProt P00387 2-301, looked up)
NADH-cytochrome b5 reductase 3: GAQLSTLGHMVLFPVWFLYSLLMKLFQRSTPAITLESPDIKYPLRLIDREIISHDTRRFRFALPSPQHILGLPVGQHIYLSARIDGNLVVRPYTPISSDDDKGFVDLVIKVYFKDTHPKFPAGGKMSQYLESMQIGDTIEFRGPSGLLVYQGKGKFAIRPDKKSNPIIRTVKSVGMIAGGTGITPMLQVIRAIMKDPDDHTVCHLLFANQTEKDILLRPELEELRNKHSARFKLWYTLDRAPEAWDYGQGFVNEEMIRDHLPPPEEEPLVLMCGPPPMIQYACLPNLDHVGHPTERCFVF
B3: sp¦Q9GZY6¦NTAL_HUMAN (protein, UniProt Q9GZY6 1-243, looked up)
Linker for activation of …: MSSGTELLWPGAALLVLLGVAASLCVRCSRPGAKRSEKIYQQRSLREDQQSFTGSRTYSLVGQAWPGPLADMAPTRKDKLLQFYPSLEDPASSRYQNFSKGSRHGSEEAYIDPIAMEYYNWGRFSKPPEDDDANSYENVLICKQKTTETGAQQEGIGGLCRGDLSLSLALKTGPTSGLCPSASPEEDEESEDYQNSASIHQWRESRKVMGQLQREASPGPVGSPDEEDGEPDYVNGEVAATEA
B4: sp¦Q29RF7¦PDS5A_HUMAN (protein, UniProt Q29RF7 1-1337, looked up)
Sister chromatid cohesion …: MDFTAQPKPATALCGVVSADGKIAYPPGVKEITDKITTDEMIKRLKMVVKTFMDMDQDSEDEKQQYLPLALHLASEFFLRNPNKDVRLLVACCLADIFRIYAPEAPYTSHDKLKDIFLFITRQLKGLEDTKSPQFNRYFYLLENLAWVKSYNICFELEDCNEIFIQLFRTLFSVINNSHNKKVQMHMLDLMSSIIMEGDGVTQELLDSILINLIPAHKNLNKQSFDLAKVLLKRTVQTIEACIANFFNQVLVLGRSSVSDLSEHVFDLIQELFAIDPHLLLSVMPQLEFKLKSNDGEERLAVVRLLAKLFGSKDSDLATQNRPLWQCFLGRFNDIHVPVRLESVKFASHCLMNHPDLAKDLTEYLKVRSHDPEEAIRHDVIVTIITAAKRDLALVNDQLLGFVRERTLDKRWRVRKEAMMGLAQLYKKYCLHGEAGKEAAEKVSWIKDKLLHIYYQNSIDDKLLVEKIFAQYLVPHNLETEERMKCLYYLYASLDPNAVKALNEMWKCQNMLRSHVRELLDLHKQPTSEANCSAMFGKLMTIAKNLPDPGKAQDFVKKFNQVLGDDEKLRSQLELLISPTCSCKQADICVREIARKLANPKQPTNPFLEMVKFLLERIAPVHIDSEAISALVKLMNKSIEGTADDEEEGVSPDTAIRSGLELLKVLSFTHPTSFHSAETYESLLQCLRMEDDKVAEAAIQIFRNTGHKIETDLPQIRSTLIPILHQKAKRGTPHQAKQAVHCIHAIFTNKEVQLAQIFEPLSRSLNADVPEQLITPLVSLGHISMLAPDQFASPMKSVVANFIVKDLLMNDRSTGEKNGKLWSPDEEVSPEVLAKVQAIKLLVRWLLGMKNNQSKSANSTLRLLSAMLVSEGDLTEQKRISKSDMSRLRLAAGSAIMKLAQEPCYHEIITPEQFQLCALVINDECYQVRQIFAQKLHKALVKLLLPLEYMAIFALCAKDPVKERRAHARQCLLKNISIRREYIKQNPMATEKLLSLLPEYVVPYMIHLLAHDPDFTRSQDVDQLRDIKECLWFMLEVLMTKNENNSHAFMKKMAENIKLTRDAQSPDESKTNEKLYTVCDVALCVINSKSALCNADSPKDPVLPMKFFTQPEKDFCNDKSYISEETRVLLLTGKPKPAGVLGAVNKPLSATGRKPYVRSTGTETGSNINVNSELNPSTGNRSREQSSEAAETGVSENEENPVRIISVTPVKNIDPVKNKEINSDQATQGNISSDRGKKRTVTAAGAENIQQKTDEKVDESGPPAPSKPRRGRRPKSESQGNATKNDDLNKPINKGRKRAAVGQESPGGLEAGNAKAPKLQDLAKKAAPAERQIDLQR
B5: sp¦P63151¦2ABA_HUMAN (protein, UniProt P63151 2-447, looked up)
Serine/threonine-protein …: AGAGGGNDIQWCFSQVKGAVDDDVAEADIISTVEFNHSGELLATGDKGGRVVIFQQEQENKIQSHSRGEYNVYSTFQSHEPEFDYLKSLEIEEKINKIRWLPQKNAAQFLLSTNDKTIKLWKISERDKRPEGYNLKEEDGRYRDPTTVTTLRVPVFRPMDLMVEASPRRIFANAHTYHINSISINSDYETYLSADDLRINLWHLEITDRSFNIVDIKPANMEELTEVITAAEFHPNSCNTFVYSSSKGTIRLCDMRASALCDRHSKLFEEPEDPSNRSFFSEIISSISDVKFSHSGRYMMTRDYLSVKIWDLNMENRPVETYQVHEYLRSKLCSLYENDCIFDKFECCWNGSDSVVMTGSYNNFFRMFDRNTKRDITLEASRENNKPRTVLKPRKVCASGKRKKDEISVDSLDFNKKILHTAWHPKENIIAVATTNNLYIFQDKVN

Results on five molecules are retold here after paper PMC8298264, “Function of cofactor Akirin2 in the regulation of gene expression in model human neutrophil-like HL60 cells” (Bioscience Reports, 2021).

In this test the test system is human HL60 cells. As to the kind of experiment: SWATH-MS proteomics, differential protein representation, akirin2 KO vs WT HL60 cells. It counts as cell-based. To be noted: akirin2 KO vs WT HL60 cells; sheet "Under-represented in KO". The essentials: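 WT and akirin2 KO HL60 lysates (150 µg, n=3 biological replicates) were FASP trypsin-digested and desalted. A spectral library was built by IDA from 3 µg digests, then 5 µg per sample went to variable-window SWATH DIA over a 120-min 5–30% acetonitrile gradient. Identifications were accepted at 1% global FDR, with total-area-sum normalization.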
For the molecule B1, the “Fold Change” value came to 0.1415 and the “Log (Fold Change)” value was -0.8493.

Take B2: the “Fold Change” value was determined as 0.3747 and the “Log (Fold Change)” value is on record as -0.4263.

Take B3: the “Fold Change” value amounted to 0.3739 and the “Log (Fold Change)” value is -0.4273.

Take B4: the “Fold Change” value was found to be 0.08984 and the “Log (Fold Change)” value is -1.047.

Regarding B5, the “Fold Change” value turned out to be 0.3625 and the “Log (Fold Change)” value is reported as -0.4407.
